Measurements: article PMC4944982

Key:
[1] = biological target: endogenous FGF receptor of untransfected HEK293T cells (human (endogenous in HEK293T)) (UniProt P11362)
[2] = biological target: human FGFR1 (transcript variant 2), overexpressed on HEK293T cells (human) (UniProt P11362); test: bioluminescent (NanoLuc) competition binding on living cells; adherent HEK293T cells transiently overexpressing human FGFR1; constant FGF2-Luc as tracer and various concentrations of wild-type or mutant FGF2 in serum-free DMEM plus 1% BSA and 5 μg/ml heparin, 20°C, 2–3 h
[3] = biological target: endogenous FGF receptor of untransfected HEK293T cells (human (endogenous in HEK293T)) (UniProt P11362); test: bioluminescent (NanoLuc) competition binding on living cells; untransfected HEK293T cells in suspension in a 96-well filtration plate; constant FGF2-Luc as tracer and various concentrations of wild-type or mutant FGF2 in serum-free DMEM plus 1% BSA and 5 μg/ml heparin, 20°C, 2–3 h
[4] = biological target: endogenous FGF receptor of untransfected HEK293T cells (human (endogenous in HEK293T)) (UniProt P11362); test: bioluminescent (NanoLuc) saturation binding on living cells; untransfected HEK293T cells in suspension in a 96-well filtration plate; various concentrations of FGF2-Luc in serum-free DMEM plus 1% BSA and 5 μg/ml heparin, 20°C, 2–3 h; nonspecific binding with 250 nM 6×His-FGF2; one-site model
[5] = biological target: human FGFR1 (transcript variant 2), overexpressed on HEK293T cells (human) (UniProt P11362); test: bioluminescent (NanoLuc) saturation binding on living cells; adherent HEK293T cells transiently overexpressing human FGFR1 in 96-well plates; various concentrations of FGF2-Luc in serum-free DMEM plus 1% BSA and 5 μg/ml heparin, 20°C, 2–3 h; nonspecific binding with 250 nM 6×His-FGF2; one-site model

Row | Substance | EC50 of activation of a serum response element (SRE)-controlled NanoLuc reporter in HEK293T cells [1] | IC50 [2] | IC50 [3] | Kd [4] | Kd [5]
1 | 6×His-FGF2 (ligand) | 58 pM | 650 pM | 81 pM | – | –
2 | 6×His-[C95S]FGF2 (ligand) | 100 pM | – | – | – | –
3 | 6×His-[Y32A]FGF2 (ligand) | 309 pM | 3450 pM | 5400 pM | – | –
4 | 6×His-[Y111A]FGF2 (ligand) | 794 pM | 5880 pM | 10000 pM | – | –
5 | NanoLuc-conjugated FGF2 (FGF2-Luc) (ligand) | – | – | – | 25 pM | 161 pM
